Laboratory results taken from paper doi:10.1101/639963.

Tests used:
[1] = target: Myosin VI N-terminal tail fragment, non-insert isoform (NMVI_(TAIL(NI))); assay: FRET or BRET
[2] = target: Myosin VI N-terminal tail fragment, large-insert isoform (NMVI_(TAIL(LI))); assay: FRET or BRET
[3] = target: Myosin VI tail, large-insert isoform (MVI_(TAIL(LI))); assay: FRET or BRET
[4] = target: Dab2 C-terminal region (residues 649-770) (UniProt P98082); assay: FRET or BRET
[5] = target: nuclear dot protein 52 (NDP52/CALCOCO2) (UniProt Q13137); assay: FRET or BRET
Chain of nuclear dot protein 52 (NDP52/CALCOCO2) (Q13137 whole entry, the tested form may be a part, canonical isoform): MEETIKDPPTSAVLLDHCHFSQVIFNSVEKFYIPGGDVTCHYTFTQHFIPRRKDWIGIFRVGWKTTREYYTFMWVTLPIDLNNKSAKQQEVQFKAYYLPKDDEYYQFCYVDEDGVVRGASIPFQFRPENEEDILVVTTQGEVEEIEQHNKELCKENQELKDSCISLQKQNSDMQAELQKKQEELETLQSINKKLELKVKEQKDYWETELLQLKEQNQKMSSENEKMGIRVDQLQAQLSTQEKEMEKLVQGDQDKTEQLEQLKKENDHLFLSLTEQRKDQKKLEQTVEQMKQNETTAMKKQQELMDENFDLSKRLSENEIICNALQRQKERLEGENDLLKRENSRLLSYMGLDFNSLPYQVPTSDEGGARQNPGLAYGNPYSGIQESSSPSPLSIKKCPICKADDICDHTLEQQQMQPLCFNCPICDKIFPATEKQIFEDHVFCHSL

[6] = target: Myosin VI tail, non-insert isoform (MVI_(TAIL(NI)), aa 814-1253); assay: FRET or BRET
[7] = target: Myosin VI CBD (cargo-binding domain; non-insert isoform) (Homo sapiens, UniProt Q9UM54-5 1060-1253); assay: fluorescence anisotropy
[8] = target: T1, Dab2 C-terminal region (myosin VI binding site) (Homo sapiens, UniProt P98082 649-770); assay: fluorescence anisotropy
T1 sequence: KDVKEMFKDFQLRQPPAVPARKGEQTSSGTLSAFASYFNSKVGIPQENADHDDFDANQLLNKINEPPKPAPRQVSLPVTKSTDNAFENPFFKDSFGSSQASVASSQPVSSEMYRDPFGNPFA

Molecule: Myosin VI C-terminal globular cargo binding domain (CBD) (domain or fragment)
- Kd with 10 μM NDP52 [1]: 4.1 µM
- Kd with 10 μM Dab2 [2]: 6 µM

Molecule: Myosin VI tail, large-insert isoform (MVI_(TAIL(LI))) (domain or fragment)
- Kd^DIMER with 20 μM Dab2 [3]: 3.3 µM
- Kd^DIMER with 20 μM NDP52 [3]: 9.3 µM
- Kd [4]: 3.5 µM
- Kd [5]: 17.3 µM

Molecule: Myosin VI tail, non-insert isoform (MVI_(TAIL(NI)), aa 814-1253) (domain or fragment)
- Kd [4]: 11.6 µM
- Kd^DIMER with 20 μM Dab2 [6]: 5.3 µM
- Kd^DIMER with 20 μM NDP52 [6]: 4.3 µM
- Kd [5]: 2.1 µM

B1: ds40 FAM-DNA (40 bp) (dsDNA)
DNA 1: TTAGTTGTTCGTAGTGCTCGTCTGGCTCTGGATTACCCGC
DNA 2: GCGGGTAATCCAGAGCCAGACGAGCACTACGAACAACTAA
- Kd [7]: 0.14 µM
- binding result [8]: no binding
